Results: patent US20120088722A1 (PROTEAPEX THERAPEUTICS, published 2012)
Ends that are not written are not given here.

What was measured:
[1] = target: T1, LTBP1 immunoprecipitated from rat tibial growth plate cartilage (rat, UniProt Q00918 21-1712, limits assumed); assay: fluorescent peptide (100 nM) binding to plate-dried LTBP1 immunoprecipitate of rat tibial growth plate cartilage, reference scrambled peptide
T1 construct: An immunoprecipitate: proteins associated with LTBP1 may be present; also called rat tibial growth plate cartilage immunoprecipitated extracts
T1 sequence (Q00918 21-1712 limits assumed): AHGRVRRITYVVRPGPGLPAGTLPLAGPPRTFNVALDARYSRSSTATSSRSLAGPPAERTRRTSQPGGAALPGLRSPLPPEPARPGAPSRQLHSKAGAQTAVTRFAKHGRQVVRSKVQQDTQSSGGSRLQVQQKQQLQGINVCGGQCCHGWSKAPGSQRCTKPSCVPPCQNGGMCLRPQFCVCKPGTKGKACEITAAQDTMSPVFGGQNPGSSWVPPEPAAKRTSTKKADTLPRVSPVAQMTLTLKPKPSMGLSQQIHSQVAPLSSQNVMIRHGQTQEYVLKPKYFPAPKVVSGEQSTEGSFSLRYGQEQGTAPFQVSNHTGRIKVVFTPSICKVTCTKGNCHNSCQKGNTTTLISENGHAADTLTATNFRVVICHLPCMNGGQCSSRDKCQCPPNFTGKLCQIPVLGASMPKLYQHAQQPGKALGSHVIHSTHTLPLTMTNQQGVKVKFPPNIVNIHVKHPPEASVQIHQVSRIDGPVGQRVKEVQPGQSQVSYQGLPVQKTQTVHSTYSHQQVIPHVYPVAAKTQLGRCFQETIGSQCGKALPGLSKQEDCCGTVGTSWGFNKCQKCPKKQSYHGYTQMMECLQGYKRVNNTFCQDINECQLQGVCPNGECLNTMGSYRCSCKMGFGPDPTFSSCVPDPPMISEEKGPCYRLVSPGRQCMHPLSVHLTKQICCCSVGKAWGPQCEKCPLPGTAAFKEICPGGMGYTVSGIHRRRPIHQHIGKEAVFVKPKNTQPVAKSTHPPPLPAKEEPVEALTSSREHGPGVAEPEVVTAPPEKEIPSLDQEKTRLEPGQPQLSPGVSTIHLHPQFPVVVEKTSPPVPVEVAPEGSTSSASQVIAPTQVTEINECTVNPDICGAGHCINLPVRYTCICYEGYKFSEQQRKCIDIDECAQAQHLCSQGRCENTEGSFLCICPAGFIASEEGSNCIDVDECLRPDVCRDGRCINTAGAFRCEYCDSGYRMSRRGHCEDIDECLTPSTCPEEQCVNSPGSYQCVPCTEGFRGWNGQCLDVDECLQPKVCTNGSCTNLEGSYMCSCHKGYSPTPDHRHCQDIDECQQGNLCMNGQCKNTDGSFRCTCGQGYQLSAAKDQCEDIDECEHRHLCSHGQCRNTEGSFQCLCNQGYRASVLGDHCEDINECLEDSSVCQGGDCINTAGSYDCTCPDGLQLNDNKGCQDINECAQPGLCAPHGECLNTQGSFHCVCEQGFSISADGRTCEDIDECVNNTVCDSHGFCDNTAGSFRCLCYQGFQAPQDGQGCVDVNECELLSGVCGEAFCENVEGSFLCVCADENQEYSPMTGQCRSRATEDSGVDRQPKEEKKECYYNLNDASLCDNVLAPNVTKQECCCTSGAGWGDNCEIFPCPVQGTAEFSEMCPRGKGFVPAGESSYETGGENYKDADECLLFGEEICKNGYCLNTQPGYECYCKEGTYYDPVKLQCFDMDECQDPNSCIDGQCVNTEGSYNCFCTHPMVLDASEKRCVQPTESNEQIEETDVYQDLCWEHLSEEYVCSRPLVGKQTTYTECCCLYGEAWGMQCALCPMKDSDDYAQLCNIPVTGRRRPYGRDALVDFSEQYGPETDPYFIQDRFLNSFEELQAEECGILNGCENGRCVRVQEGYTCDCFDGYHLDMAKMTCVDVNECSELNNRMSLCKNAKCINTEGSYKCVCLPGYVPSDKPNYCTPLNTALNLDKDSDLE
Description: (§1) Peptide binding assay—Twenty-five micrograms of total equal protein from cartilage CHAPS extracts or five nanograms recombinant protein of the calcium-like EGF binding domain of LTBP1 (a kind gift of Sarah Dallas) or hypertrophic cartilage from day 17 avian embryo sterna and tibial growth plate cartilage from day 14 newborn rat pups were extracted with 0.5% CHAPS buffer and eluates immunoprecipitated with polyclonal antibody to LTBP1 and then samples were plated onto poly-L-lysine coated 96 well plates. After overnight drying, the protein-coated wells were incubated with 100 nM fluorescent-labeled peptide in Tris buffered saline [150 mM NaCl, 10 mM Tris, pH 8.0] and 20% horse serum for 4 hours at 16° C. After incubation, the wells are washed twice with binding buffer, the protein layer solubilized with 5N NaOH and fluorescence bound measured at 495 nm excitation and 520 nm emission on the LabSystems Fluoroskan Ascent CF plate reader. Statistical analyses and graphing were performed with Prism GraphPad software (ANOVA with Turkey's Analysis). A scrambled peptide of the same amino acid composition was prepared as a negative control. Competition assays were conducted in the presence of 10-fold more (1 μM) naked peptide.

[2] = target: T2, LTBP1 immunoprecipitated from avian hypertrophic cartilage (avian (chick embryo)); assay: fluorescent peptide (100 nM) binding to plate-dried LTBP1 immunoprecipitate of avian hypertrophic cartilage, reference scrambled peptide
T2 construct: An immunoprecipitate: proteins associated with LTBP1 (TGFβ LLC components) may be present; also called hypertrophic cartilage immunoprecipitates
Description: as §1

[3] = target: T3, recombinant protein of the calcium-binding, EGF-like domains of LTBP1 (CE-LTBP1); assay: fluorescent peptide (100 nM) binding to plate-dried recombinant CE-LTBP1, reference scrambled peptide
T3 construct: It was dried onto poly-L-lysine coated wells
Description: as §1

fold binding over scrambled control [1]: 3.9 fold
fold binding over scrambled peptide [3]: 27 fold
Binder: ELGLPKEVKKISAAVHFED (also: fluorescent-labeled in binding assay, label and position not given here, also called MPP13-19; pxpt 001-1) [MMP13-19 peptide (amino acids 93-111 of SEQ ID NO: 1)]
fold binding over scrambled control [2]: 10.5 fold
